Source: patent publication US20220275077A1
Read-outs that look alike come from different tables or passages of the source. Blank lines part the entries; values can stand above or below the binder they belong to.

Legend:
[1] = biological target: T1, FERD3L (human) (UniProt Q96RJ6); experiment: CDI HuProt native protein microarray
T1 sequence (looked up): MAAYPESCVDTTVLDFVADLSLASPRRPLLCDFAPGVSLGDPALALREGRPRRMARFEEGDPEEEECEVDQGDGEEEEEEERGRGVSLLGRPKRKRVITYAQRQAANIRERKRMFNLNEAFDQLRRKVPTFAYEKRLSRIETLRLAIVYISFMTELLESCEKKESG

[2] = biological target: Hnmph1; experiment: CDI HuProt native protein microarray
[3] = biological target: T2, human Interleukin-38 (IL-38) (human) (UniProt Q8WWZ1); experiment: CDI HuProt native protein microarray
T2 sequence (looked up): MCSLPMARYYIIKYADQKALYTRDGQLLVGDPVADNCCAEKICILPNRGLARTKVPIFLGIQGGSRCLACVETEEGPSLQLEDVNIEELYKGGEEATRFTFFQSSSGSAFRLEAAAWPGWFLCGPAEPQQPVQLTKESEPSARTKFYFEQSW

[4] = biological target: IL-18 (human) (UniProt Q14116); experiment: CDI HuProt native protein microarray
Chain of IL-18 (human) (Q14116 whole entry): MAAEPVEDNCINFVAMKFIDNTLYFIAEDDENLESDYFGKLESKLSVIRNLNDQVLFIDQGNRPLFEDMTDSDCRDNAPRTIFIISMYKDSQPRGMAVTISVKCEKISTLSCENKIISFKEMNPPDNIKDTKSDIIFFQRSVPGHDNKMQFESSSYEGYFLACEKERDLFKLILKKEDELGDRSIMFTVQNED

[5] = biological target: IL-1Ra (human) (UniProt P18510); experiment: CDI HuProt native protein microarray
Chain of IL-1Ra (human) (P18510 26-177 limits assumed): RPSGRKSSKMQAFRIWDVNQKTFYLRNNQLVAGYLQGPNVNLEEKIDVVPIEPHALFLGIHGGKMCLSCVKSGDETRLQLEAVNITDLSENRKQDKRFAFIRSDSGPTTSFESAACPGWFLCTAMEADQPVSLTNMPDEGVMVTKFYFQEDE

[6] = biological target: T3, IL-1α (human) (UniProt P01583); experiment: CDI HuProt native protein microarray
T3 sequence (looked up): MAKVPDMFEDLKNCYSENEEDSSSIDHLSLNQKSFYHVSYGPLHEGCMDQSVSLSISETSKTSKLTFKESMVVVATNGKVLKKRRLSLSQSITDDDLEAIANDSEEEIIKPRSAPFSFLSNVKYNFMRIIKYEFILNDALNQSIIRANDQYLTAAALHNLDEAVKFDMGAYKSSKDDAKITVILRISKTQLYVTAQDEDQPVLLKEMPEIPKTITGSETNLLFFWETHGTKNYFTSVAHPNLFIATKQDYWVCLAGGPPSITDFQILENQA

[7] = biological target: IL-1β (human) (UniProt P01584); experiment: CDI HuProt native protein microarray
Chain of IL-1β (human) (P01584 whole entry): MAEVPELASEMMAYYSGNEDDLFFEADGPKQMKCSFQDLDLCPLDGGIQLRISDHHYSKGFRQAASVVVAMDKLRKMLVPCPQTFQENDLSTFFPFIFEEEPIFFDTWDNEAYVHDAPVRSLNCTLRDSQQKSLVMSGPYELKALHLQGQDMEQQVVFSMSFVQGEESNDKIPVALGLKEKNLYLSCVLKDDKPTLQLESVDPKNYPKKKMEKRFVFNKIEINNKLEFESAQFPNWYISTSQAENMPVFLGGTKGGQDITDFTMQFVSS

[8] = biological target: T4, IL-33 (human) (UniProt O95760); experiment: CDI HuProt native protein microarray
T4 sequence (looked up): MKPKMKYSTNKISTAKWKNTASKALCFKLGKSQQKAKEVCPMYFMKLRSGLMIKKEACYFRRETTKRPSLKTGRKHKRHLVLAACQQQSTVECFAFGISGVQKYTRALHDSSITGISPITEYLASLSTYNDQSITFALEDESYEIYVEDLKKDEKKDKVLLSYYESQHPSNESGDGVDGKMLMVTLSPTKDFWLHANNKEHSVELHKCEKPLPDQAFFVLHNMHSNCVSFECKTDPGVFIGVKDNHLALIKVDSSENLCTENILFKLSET

[9] = biological target: T5, IL-36Ra (human) (UniProt Q9UBH0); experiment: CDI HuProt native protein microarray
T5 sequence (looked up): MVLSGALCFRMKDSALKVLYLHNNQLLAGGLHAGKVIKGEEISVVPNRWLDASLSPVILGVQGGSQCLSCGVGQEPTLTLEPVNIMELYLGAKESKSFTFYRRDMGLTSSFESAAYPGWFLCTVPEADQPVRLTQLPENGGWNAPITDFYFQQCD

[10] = biological target: T6, IL-36a (human) (UniProt Q9UHA7); experiment: CDI HuProt native protein microarray
T6 sequence (looked up): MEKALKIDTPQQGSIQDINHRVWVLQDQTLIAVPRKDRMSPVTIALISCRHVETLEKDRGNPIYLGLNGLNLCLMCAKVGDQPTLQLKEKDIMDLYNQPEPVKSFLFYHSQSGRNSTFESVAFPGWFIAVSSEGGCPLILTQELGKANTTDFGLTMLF

[11] = biological target: T7, IL-36b (human) (UniProt Q9NZH7); experiment: CDI HuProt native protein microarray
T7 sequence (looked up): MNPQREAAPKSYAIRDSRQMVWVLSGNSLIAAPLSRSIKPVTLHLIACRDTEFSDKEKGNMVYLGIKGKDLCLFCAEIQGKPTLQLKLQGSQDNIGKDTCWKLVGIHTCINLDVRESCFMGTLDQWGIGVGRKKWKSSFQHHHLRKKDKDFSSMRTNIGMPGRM

[12] = biological target: T8, IL-36g (human) (UniProt Q9NZH8); experiment: CDI HuProt native protein microarray
T8 sequence (looked up): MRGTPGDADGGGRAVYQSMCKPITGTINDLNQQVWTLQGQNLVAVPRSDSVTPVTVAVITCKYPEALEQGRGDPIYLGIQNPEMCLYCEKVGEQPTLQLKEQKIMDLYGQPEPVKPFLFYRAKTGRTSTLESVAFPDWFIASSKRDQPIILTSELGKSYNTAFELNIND

[13] = biological target: T9, IL-37 (human) (UniProt Q9NZH6); experiment: CDI HuProt native protein microarray
T9 sequence (looked up): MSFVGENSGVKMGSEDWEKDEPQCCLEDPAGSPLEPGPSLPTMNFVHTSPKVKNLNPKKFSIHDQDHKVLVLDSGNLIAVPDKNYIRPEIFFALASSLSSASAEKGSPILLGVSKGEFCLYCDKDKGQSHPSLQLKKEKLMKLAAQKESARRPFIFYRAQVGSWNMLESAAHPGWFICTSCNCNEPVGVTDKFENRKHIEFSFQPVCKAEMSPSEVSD

[14] = biological target: T2, human Interleukin-38 (IL-38) (human); experiment: CDI HuProt native protein microarray; remark: listed apart in the source
[15] = biological target: T2, human Interleukin-38 (IL-38) (human); experiment: BLI (Octet QKe), antibody on anti-mouse Fc biosensor, soluble IL-38, 1:1 model

F635 [1]: 19100
Z-score [1]: 49.2
s-score [1]: 26.2
F635 [2]: 4130
Z-score [2]: 10.6
s-score [2]: 5
F635 [3]: 54000
Z-score [3]: 140
s-score [3]: 90.3
Z-score [4]: -0.016
Z-score [5]: -0.013
Z-score [6]: -0.013
Z-score [7]: -0.016
Z-score [8]: -0.02
Z-score [9]: -0.017
Z-score [10]: -0.008
Z-score [11]: -0.016
Z-score [12]: -0.017
Z-score [13]: -0.013
Z-score [14]: 140
Kd [15]: 0.721 nM
B1: CD1-M3 (antibody, from a related filing, V domains shown)
VH: EVQLQQSGPELVKPGASVKIPCKASGYTFTDYNMDWVKQSHGKSLEWIGDINPNNGGTIYNQKFKGKATLTVDKSSSTAYMELRSLTSEDTAVYYCSRPYYGYFAYWGQGTLVTVSA
VL: DVVMTQSPLSLPVSLGDQASISCRSSQSLVHSHENTFLHWYLQKPGQSPKLLIYRVSNRFSGVPDRFSGSGSGTDFTLKISRVEAEDLGVYFCSQSTHVPLTFGAGTKLELK

F635 [1]: 16300
Z-score [1]: 50.9
s-score [1]: 40.8
F635 [3]: 45600
s-score [3]: 91.5
Z-score [4]: -0.016
Z-score [5]: 0.003
Z-score [6]: -0.014
Z-score [7]: -0.017
Z-score [8]: -0.014
Z-score [9]: -0.019
Z-score [10]: 0.012
Z-score [11]: -0.01
Z-score [12]: -0.008
Z-score [13]: -0.016
Z-score [14]: 142
B2: CD1-M8 (antibody, from a related filing, V domains shown)
VH: EVQLQQSGPELVKPGASVKMSCKASGYTFTDYYIHWVKQSHGKGLEWIGYIFPNNGGNGYSQKFKGKATMTVDKSSSTAYMELRSLTSEDSAVYYCARGGYDAGFVYWGQGTLVTVSA
VL: DIVMSQSPSSLAVSAGEKVTMSCKSSQSLFNSGARKNFLAWYQQKPGQSPKLLIYWASTRESGVPDRFTGSGSGTDFTLTISSVQAEDLAVYYCKQSYYLITFGAGTKLELK
